Laboratory results reported in PMC12581312, “Lung endothelial PEAR1 induces tumor cell dormancy” (Molecular Cancer, 2025).

Molecular target: T1, Human recombinant LOXL2 (lysyl oxidase like 2) (human, UniProt Q9Y4K0 26-774)
T1 construct: lysyl oxidase like 2 (LOXL2), human, recombinant; source: bought: R&D Systems (catalog #2639-AO-010)
T1 sequence (looked up): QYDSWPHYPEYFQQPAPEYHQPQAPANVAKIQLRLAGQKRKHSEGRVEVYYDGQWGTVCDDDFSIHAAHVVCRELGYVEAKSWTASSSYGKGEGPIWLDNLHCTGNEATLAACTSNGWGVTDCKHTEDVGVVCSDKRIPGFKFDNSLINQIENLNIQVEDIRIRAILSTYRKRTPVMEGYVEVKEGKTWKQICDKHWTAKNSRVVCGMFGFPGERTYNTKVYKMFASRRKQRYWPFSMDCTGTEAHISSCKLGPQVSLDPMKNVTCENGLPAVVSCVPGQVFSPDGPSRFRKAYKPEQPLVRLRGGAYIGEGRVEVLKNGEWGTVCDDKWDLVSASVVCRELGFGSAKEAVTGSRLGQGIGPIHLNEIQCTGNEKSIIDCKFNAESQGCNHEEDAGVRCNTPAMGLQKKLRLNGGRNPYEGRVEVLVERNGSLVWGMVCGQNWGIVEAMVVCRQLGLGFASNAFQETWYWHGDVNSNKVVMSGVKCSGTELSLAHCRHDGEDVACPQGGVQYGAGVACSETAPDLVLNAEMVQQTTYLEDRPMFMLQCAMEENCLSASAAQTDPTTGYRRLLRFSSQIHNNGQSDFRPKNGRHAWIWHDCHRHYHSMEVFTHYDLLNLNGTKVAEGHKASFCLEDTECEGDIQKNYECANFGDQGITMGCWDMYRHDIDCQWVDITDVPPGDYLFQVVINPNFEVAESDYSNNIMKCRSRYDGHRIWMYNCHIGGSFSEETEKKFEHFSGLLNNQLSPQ
Test: pull-down; recombinant human PEAR1 (100 nM) immobilised on Ni-NTA magnetic beads, incubated with 100 nM recombinant human CTSD, SEMA6D or LOXL2 in 50 mM NaH2PO4, 300 mM NaCl, 20 mM imidazole, pH 8.0, 1 h at room temperature; control Ni-NTA beads; immunoblotting
Conditions: both partners purified

- binding result: binds
B1: Human recombinant PEAR1 extracellular part (platelet and endothelial aggregation receptor 1), His-tagged (domain or fragment, UniProt Q5VY43 21-755, looked up)
chain: LNPSDPNTCSFWESFTTTTKESHSRPFSLLPSEPCERPWEGPHTCPQPTVVYRTVYRQVVKTDHRQRLQCCHGFYESRGFCVPLCAQECVHGRCVAPNQCQCVPGWRGDDCSSECAPGMWGPQCDKPCSCGNNSSCDPKSGVCSCPSGLQPPNCLQPCTPGYYGPACQFRCQCHGAPCDPQTGACFCPAERTGPSCDVSCSQGTSGFFCPSTHSCQNGGVFQTPQGSCSCPPGWMGTICSLPCPEGFHGPNCSQECRCHNGGLCDRFTGQCRCAPGYTGDRCREECPVGRFGQDCAETCDCAPDARCFPANGACLCEHGFTGDRCTDRLCPDGFYGLSCQAPCTCDREHSLSCHPMNGECSCLPGWAGLHCNESCPQDTHGPGCQEHCLCLHGGVCQATSGLCQCAPGYTGPHCASLCPPDTYGVNCSARCSCENAIACSPIDGECVCKEGWQRGNCSVPCPPGTWGFSCNASCQCAHEAVCSPQTGACTCTPGWHGAHCQLPCPKGQFGEGCASRCDCDHSDGCDPVHGRCQCQAGWMGARCHLSCPEGLWGVNCSNTCTCKNGGTCLPENGNCVCAPGFRGPSCQRSCQPGRYGKRCVPCKCANHSFCHPSNGTCYCLAGWTGPDCSQPCPPGHWGENCAQTCQCHHGGTCHPQDGSCICPLGWTGHHCLEGCPLGTFGANCSQPCQCGPGEKCHPETGACVCPPGHSGAPCRIGIQEPFTVMPTTPVAYNSL
notes: platelet and endothelial aggregation receptor 1 (PEAR1), human, extracellular part; Held on Ni-NTA magnetic agarose beads by its His tag in the pull-downs; also called rhPEAR1; PEAR1 agarose; source: bought: R&D Systems (catalog #4527-PR-050)
